The target in assay [1] is HIV-1 envelope glycoprotein gp41 (HIV-1) (UniProt P04578).
For assay [2], the target named is HIV-1 envelope glycoprotein gp120 (HIV-1) (UniProt P04578).

For “Canavalia brasiliensis lectin (from UniProt P55915 1-237) (natural protein)”, the EC50 to inhibit giant cell (syncytium) formation in SupT1 + HUT-78/HIV-1 co-cultures (fusion by gp120/gp41-CD4 interaction) in assay [1] and in assay [2] was 75 nM in each case.

As to “Canavalia maritima lectin (natural protein)”, the EC50 to inhibit giant cell (syncytium) formation in SupT1 + HUT-78/HIV-1 co-cultures (fusion by gp120/gp41-CD4 interaction) in assay [1] and in assay [2] was 75 nM throughout.

Take “Dioclea lasiocarpa lectin (natural protein)”: the EC50 to inhibit giant cell (syncytium) formation in SupT1 + HUT-78/HIV-1 co-cultures (fusion by gp120/gp41-CD4 interaction) in assay [1] and in assay [2] was 46 nM in each case.

On to “Dioclea sclerocarpa lectin (natural protein)”, for which the EC50 to inhibit giant cell (syncytium) formation in SupT1 + HUT-78/HIV-1 co-cultures (fusion by gp120/gp41-CD4 interaction) in assay [1] and in assay [2] was 63 nM in each case.

The record behind these values is publication PMC6430086.
